The results in this text go back to patent US20220332818A1 (AstraZeneca / MedImmune, published 2022).

The assay concerns the target T1, TIM-3 IgV domain (human) (human, UniProt Q8TDQ0 22-130).
T1 construct: also called IgV domain of TIM-3; human TIM-3 IgV
T1 sequence: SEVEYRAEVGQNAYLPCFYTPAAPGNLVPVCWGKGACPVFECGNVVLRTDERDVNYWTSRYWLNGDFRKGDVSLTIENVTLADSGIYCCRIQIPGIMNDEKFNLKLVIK
The assay is described as follows: co-crystal X-ray structure.

Description: To obtain the co-crystal structure of the TIM-3 IgV domain with antigen-binding fragments (Fabs), all proteins were expressed in mammalian cells and purified to homogeneity. Purified TIM-3 IgV domain and Fabs (one at a time) were incubated at a slight excess of IgV domain, followed by size exclusion purification of the complex. Crystallization of the complexes was performed at room temperature. The X-ray diffraction data was collected at the Stanford Synchrotron Radiation Lightsource (SSRL, Menlo Park, Calif., USA). Structures of the complexes were solved by molecular replacement.

B1: Fab of anti-TIM3 antibody #62 (Fab, V domains shown)
VH: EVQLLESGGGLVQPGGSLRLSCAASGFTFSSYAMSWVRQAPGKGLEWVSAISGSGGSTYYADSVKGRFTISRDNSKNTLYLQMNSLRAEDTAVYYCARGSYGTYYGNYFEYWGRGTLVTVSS
VL: QTVLTQPPSVSVAPGKTASISCGGDNIGGKSVHWYQQKPGQAPVLVIYYDSDRPSGIPQRFSGSNSGNTATLTIHRVEAGDEADYYCQVLDRRSDHWLFGGGTKLTVL
notes: Fab expressed in mammalian cells for co-crystallisation; also called clone 62
B1: the binding result is “binds”.
